# Source: patent US20230189844
# Experiments:
# [1] = target: T1, Soy Kunitz Inhibitor (Trypsin Inhibitor from soybean), P01070
# T1 chain: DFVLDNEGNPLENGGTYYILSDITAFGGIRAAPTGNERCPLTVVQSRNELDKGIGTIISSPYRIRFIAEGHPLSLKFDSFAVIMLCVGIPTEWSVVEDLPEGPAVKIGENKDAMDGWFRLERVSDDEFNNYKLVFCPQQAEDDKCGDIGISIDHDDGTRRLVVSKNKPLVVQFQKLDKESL
# [2] = target: Soybean agglutinin (SBA), P05046
# [3] = target: T2, Soy Bowman-Birk Inhibitor, P01055
# T2 chain: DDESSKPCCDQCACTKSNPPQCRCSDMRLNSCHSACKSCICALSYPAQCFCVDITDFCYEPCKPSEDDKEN
# Soybean agglutinin (SBA), P05046, sequence (P05046 33-285): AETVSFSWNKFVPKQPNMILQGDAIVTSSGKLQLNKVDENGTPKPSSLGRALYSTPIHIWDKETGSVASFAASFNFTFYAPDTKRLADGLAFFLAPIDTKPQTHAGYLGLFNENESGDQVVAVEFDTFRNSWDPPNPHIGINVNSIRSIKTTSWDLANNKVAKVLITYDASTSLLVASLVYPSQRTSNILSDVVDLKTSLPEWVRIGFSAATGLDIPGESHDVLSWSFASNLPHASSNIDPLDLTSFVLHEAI
protein,measurement,setting,value
Protease derived from Nocardiopsis sp. NRRL 18262 (an acid-stable protease) (protein) ADIIGGLAYTMGGRCSVGFAATNAAGQPGFVTAGHCGRVGTQVTIGNGRGVFEQSVFPGNDAAFVRGTSNFTLTNLVSRYNTGGYATVAGHNQAPIGSSVCRSGSTTGWHCGTIQARGQSVSYPEGTVTNMTRTTVCAEPGDSGGSYISGTQAQGVTSGGSGNCRTGGTTFYQEVTPMVNSWGVRLRT,"% of anti-nutritional factor degraded (SDS-PAGE band disappearance, 2 hours, 37° C., pH 6.5)",[1],100%
same,"% of anti-nutritional factor degraded (SDS-PAGE band disappearance, 2 hours, 37° C., pH 6.5)",[2],75%
same,"% of anti-nutritional factor degraded (SDS-PAGE band disappearance, 2 hours, 37° C., pH 6.5)",[3],25%
